Measured values as given in patent US6207419A, “Thrombin inhibitory agents and methods of using same” (The University of North Carolina at Chapel Hill, priority 1999, dated 2001).

What was measured:
[1] = molecular target: T1, plasma purified α-thrombin (Homo sapiens, UniProt P00734); details: value printed with literature reference; cited from earlier work
T1 construct: Human α-thrombin, HCII, and ATIII were purified in our laboratory from plasma; from tissue; host or cells: human plasma (purified in the authors' laboratory)

α-thrombin = molecular target: T2, α-thrombin (Homo sapiens, UniProt P00734); assay: Effect of hirugen on thrombin inhibition in the absence of glycosaminoglycan; type: biochemical
T2 construct: Human α-thrombin, HCII, and ATIII were purified in our laboratory from plasma; from tissue; host or cells: human plasma (purified in the authors' laboratory)
Description: (§1) Residual thrombin activity was measured with 150 μM GlyProArg-NA and 1 mg/mL pB in the absence of glycosaminoglycan, 2 mg/mL pB in the presence of heparin and 4 mg/mL in the presence of dermatan sulfate. Residual factor Xa activity was measured with 500 μM Spectrozyme FXa and 2mg/mL pB in the presence or absence of glycosaminoglycan. Residual chymotrypsin activity was measured with 150 μM AlaAlaProPhe-NA and residual trypsin activity was measured with 150 μM GlyProArg-NA.
Assays were performed at least in triplicate on two or more recombinant protein preparations.

thrombin = details: cited from earlier work
[2] = molecular target: T1, plasma purified α-thrombin; assay: Thrombin inhibition in the presence of glycosaminoglycans (heparin or dermatan sulfate); type: biochemical; details: heparin at optimal concentration
Description: Protease inhibition rates were determined as described previously (Rogers, S. J., Pratt, C. W., Whinna, H. C., and Church, F. C. (1992) J. Biol. Chem. 267(6), 3613-3617; Whinna, H. C., Choi, H. U., Rosenberg, L. C., and Church, F. C. (1993) J. Biol. Chem. 268, 3920-3924; Ciaccia, A. V., Cunningham, E. L., and Church, F. C. (1995) Protein Express. Purific. 6, 806-812; Ciaccia, A. V., Willemze, A. J., and Church, F. C. (1997) J. Biol. Chem. 272(2), 888-893). All assays were performed at room temperature in 96-well microtiter plates previously coated with 2 mg/mL BSA.
In the presence of glycosaminoglycans, 5 nM rHCII (wt, CHis6, CHis5 Pro, L444R, or L444R-CHis6) was incubated with 0.5 nM thrombin and 0-1 mg/mL heparin or 0-4 mg/mL dermatan sulfate or 10 nM rATIII (wt or CHis6) was incubated with 1 nM thrombin or factor Xa and 0-1 mg/mL heparin in the presence of 2 mg/mL BSA in HNPN, pH 7.4.
as §1, with “GlyProArg-NA. Substrate cleavage was measured by color development at […] on a Vmax Kinetic Microplate Reader (Molecular Devices).” for “GlyProArg-NA.”
Assays were performed at least in triplicate on two or more recombinant protein preparations. All inhibition studies were measured under pseudo-first order conditions where inhibitor [I] is at least ten-fold higher than enzyme (protease) [E], and second-order rate constants were calculated as described previously (Ciaccia, A. V., Cunningham, E. L., and Church, F. C. (1995) Protein Express. Purific. 6, 806-812; Ciaccia, A. V., Willemze, A. J., and Church, F. C. (1997) J. Biol. Chem. 272(2), 888-893).

[3] = Heparin-Sepharose affinity chromatography; type: binding; details: NaCl gradient, 20 mM Hepes pH 7.4
Description: 100 μL of each fraction was aliquoted onto a 96-well microtiter plate and ELISA was performed. The peak elution ionic strength was determined by plotting 405 nm color development and NaCl concentration against the fraction number. All samples were run at least in triplicate using two or more protein preparations. Recombinant ATIII samples were run similarly to the HCII samples, except the elution gradient was run from 50 mM to 2 M NaCl.

effect of hirugen on thrombin inhibition, in words (α-thrombin; hirugen 20 μM, absence of glycosaminoglycan): less of an effect
rate constant of inhibition (k2) in the absence of peptide (α-thrombin; no hirugen, no control peptide, FIG. 5): 31200 M⁻¹ s⁻¹
maximal rate of thrombin inhibition in the presence of heparin [2]: 1.93±0.38×10^8 M^-1 min^-1
B1: rHCII-L444R: Recombinant HCII with mutation at the reactive site residue P1 (L444R) (protein, UniProt P05546 20-499, looked up, variant L444R)
Heparin cofactor 2: GSKGPLDQLEKGGETAQSADPQWEQLNNKNLSMPLLPADFHKENTVTNDWIPEGEEDDDYLDLEKIFSEDDDYIDIVDSLSVSPTDSDVSAGNILQLFHGKSRIQRLNILNAKFAFNLYRVLKDQVNTFDNIFIAPVGISTAMGMISLGLKGETHEQVHSILHFKDFVNASSKYEITTIHNLFRKLTHRLFRRNFGYTLRSVNDLYIQKQFPILLDFKTKVREYYFAEAQIADFSDPAFISKTNNHIMKLTKGLIKDALENIDPATQMMILNCIYFKGSWVNKFPVEMTHNHNFRLNEREVVKVSMMQTKGNFLAANDQELDCDILQLEYVGGISMLIVVPHKMSGMKTLEAQLTPRVVERWQKSMTNRTREVLLPKFKLEKNYNLVESLKLMGIRMLFDKNGNMAGISDQRIAIDLFKHQGTITVNEEGTQATTVTTVGFMPRSTQVRFTVDRPFLFLIYEHRTSCLLFMGRVANPSRS
maximal rate of thrombin inhibition in the presence of dermatan sulfate [1]: 2.84±0.24×10^6 M^-1 min^-1
increase of the rate of thrombin inhibition compared to wt-rHCII (thrombin; absence of glycosaminoglycan, earlier publications): ~2 orders of magnitude
rate of thrombin inhibition in the absence of glycosaminoglycan (thrombin; value printed with literature reference): 1.3±0.30×10^6 M^-1 min^-1
Heparin-Sepharose [NaCl], peak elution concentration [3]: 350 mM
